Measurements taken from US20240383984A1 (Genentech, published 2024).
Values belong to the binder of their own block, whether it stands above or below them.

Assays:
Assay in all cases: FACS, SVT2 cells
[1] = target: T1, human FcRH5 (full-length, on cells) (human, UniProt Q96RD9 16-977)
T1 construct: Transfected SVT2/293 cells or endogenous expression (MOLP-2, primary cells); also called SVT2-FcRH5; SVT2-huFcRH5
T1 sequence: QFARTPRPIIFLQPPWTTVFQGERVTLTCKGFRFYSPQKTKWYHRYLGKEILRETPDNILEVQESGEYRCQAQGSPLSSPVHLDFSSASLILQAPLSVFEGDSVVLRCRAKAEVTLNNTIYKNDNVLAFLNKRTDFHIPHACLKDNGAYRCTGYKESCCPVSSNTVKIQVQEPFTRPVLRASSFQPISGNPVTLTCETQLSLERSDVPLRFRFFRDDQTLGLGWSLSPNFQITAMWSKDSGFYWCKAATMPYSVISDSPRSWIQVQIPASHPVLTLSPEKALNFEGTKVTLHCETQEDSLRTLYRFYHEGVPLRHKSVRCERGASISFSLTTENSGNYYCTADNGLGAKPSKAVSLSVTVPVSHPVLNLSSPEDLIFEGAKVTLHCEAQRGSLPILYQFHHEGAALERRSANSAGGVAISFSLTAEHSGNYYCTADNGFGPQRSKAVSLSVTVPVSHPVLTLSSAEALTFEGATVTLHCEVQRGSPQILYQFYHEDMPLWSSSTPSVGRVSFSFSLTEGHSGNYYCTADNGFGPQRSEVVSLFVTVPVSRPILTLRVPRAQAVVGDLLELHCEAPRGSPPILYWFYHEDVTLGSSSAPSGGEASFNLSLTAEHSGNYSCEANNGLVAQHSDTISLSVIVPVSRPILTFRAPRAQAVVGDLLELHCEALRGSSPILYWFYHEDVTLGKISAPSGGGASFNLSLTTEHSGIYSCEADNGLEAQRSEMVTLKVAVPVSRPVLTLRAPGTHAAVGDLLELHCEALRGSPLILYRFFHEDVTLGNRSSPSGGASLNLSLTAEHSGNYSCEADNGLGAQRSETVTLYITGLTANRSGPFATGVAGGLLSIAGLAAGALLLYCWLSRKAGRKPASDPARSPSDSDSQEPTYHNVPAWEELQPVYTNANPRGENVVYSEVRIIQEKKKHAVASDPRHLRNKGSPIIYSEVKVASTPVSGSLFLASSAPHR

[2] = target: T2, human FcRH1 (full-length, on SVT2 cells) (human, UniProt Q96LA6 17-429)
T2 construct: whole, on cells; also called SVT2-FcRH1
T2 sequence (looked up): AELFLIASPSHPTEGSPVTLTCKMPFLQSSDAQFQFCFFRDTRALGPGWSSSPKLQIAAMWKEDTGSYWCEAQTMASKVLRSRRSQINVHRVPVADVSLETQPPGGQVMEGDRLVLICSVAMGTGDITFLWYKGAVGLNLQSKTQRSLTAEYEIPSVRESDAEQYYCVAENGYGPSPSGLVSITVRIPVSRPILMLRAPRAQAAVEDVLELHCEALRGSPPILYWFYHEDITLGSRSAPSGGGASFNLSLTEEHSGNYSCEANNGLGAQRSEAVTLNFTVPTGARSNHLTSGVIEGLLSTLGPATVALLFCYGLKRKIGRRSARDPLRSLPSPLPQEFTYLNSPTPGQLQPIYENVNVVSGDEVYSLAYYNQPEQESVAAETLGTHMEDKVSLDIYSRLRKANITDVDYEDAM

[3] = target: T3, human FcRH2 (full-length, on SVT2 cells) (human, UniProt Q96LA5 20-508)
T3 construct: whole, on cells; also called SVT2-FcRH2
T3 sequence (looked up): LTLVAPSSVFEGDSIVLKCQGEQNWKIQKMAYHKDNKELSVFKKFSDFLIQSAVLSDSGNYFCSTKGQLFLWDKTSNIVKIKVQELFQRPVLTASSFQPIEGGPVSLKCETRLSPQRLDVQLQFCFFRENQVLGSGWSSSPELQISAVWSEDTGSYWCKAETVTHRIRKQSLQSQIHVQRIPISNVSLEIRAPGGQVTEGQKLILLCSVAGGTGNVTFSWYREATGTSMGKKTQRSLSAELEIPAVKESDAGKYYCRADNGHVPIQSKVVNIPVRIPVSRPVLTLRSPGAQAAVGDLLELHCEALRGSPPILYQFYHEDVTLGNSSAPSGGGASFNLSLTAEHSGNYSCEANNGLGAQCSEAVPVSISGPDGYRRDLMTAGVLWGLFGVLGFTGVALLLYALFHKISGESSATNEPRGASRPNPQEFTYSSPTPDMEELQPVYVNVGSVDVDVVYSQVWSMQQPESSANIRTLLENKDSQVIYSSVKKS

[4] = target: T4, human FcRH3 (full-length, on SVT2 cells) (human, UniProt Q96P31 18-734)
T4 construct: whole, on cells; also called SVT2-FcRH3
T4 sequence (looked up): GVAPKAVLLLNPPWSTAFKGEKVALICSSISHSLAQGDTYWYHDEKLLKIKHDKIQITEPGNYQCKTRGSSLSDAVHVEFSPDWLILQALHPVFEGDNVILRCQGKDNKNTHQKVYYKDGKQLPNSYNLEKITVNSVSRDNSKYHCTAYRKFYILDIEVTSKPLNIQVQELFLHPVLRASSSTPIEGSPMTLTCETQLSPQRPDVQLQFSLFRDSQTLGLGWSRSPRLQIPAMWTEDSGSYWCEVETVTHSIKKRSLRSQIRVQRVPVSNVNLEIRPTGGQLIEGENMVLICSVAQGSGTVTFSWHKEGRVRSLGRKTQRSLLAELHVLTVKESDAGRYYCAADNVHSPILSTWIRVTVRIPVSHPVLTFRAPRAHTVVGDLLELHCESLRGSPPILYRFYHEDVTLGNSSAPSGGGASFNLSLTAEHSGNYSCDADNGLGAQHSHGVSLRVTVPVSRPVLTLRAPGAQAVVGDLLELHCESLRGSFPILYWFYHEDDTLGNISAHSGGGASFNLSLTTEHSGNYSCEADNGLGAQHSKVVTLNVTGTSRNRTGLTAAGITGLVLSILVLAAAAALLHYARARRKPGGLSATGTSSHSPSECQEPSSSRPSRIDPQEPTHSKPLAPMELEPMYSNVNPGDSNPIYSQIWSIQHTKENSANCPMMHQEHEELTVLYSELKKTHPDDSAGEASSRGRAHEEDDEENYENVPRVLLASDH

binding result [1]: binds
binding result [2]: no binding
binding result [3]: no binding
binding result [4]: no binding
B1: 15G8 (antibody, mouse IgG2a, V domains shown)
VH: EVQLQQSGPELVKPGASVKMSCKASGYTFTNYVIHWMKQKPGQGLEWIGYISPYNDYTKYNEKFEGKATLTSDKSSNTAYMELSSLTSEDSAVYYCARRDYYGSSDYWGQGTTLTVSS
VL: QIVLTQSPAIMSASPGEKVTMTCSASSSVDYMHWYQQKSGTSPKKWIYDTSKLASGVPARFSGSGSGTSYSLTIGSMEAEDAATYYCQQWSSNPPTFGGGTKLEIK
notes: mouse mAb, Campaign C; recombinant murine IgG2a for SPR; also called mAb 15G8

binding result [1]: binds
binding result [2]: no binding
binding result [3]: no binding
binding result [4]: no binding
B2: 17B1 (antibody, mouse IgG2a, V domains shown)
VH: QVQLQQSGPELVRPGVSVKISCKGSGYTFTHYAMHWVKQSHTKSLEWIGMISSSSGNTNFNQKFMDKATMTVDKSSTTAYLELARLTFGDSAIYYCARWSYYALFDYWGQGTTVTVSS
VL: ENVLTQSPAIMSASPGEKVTMTCSADSSVDYIHWYQQKSNTSPKLWIYDTSKLASGVPGRFSGSGSGNSYSLTISSMEAEDFATYYCFQGSGYPLTFGSGTKLELK
notes: mouse mAb, Campaign C; recombinant murine IgG2a for SPR
